Experimental data from paper PMC2649420.
Where two headings read alike, the source gives them in different places.

Legend:
Test in all cases: SPR
[1] = molecular target: Sbi-III-IV (amino acids 150-266), domains III and IV of Sbi (S. aureus strain Mu50) (UniProt Q99RL2)
[2] = molecular target: Sbi-III-IV (amino acids 150-266), domains III and IV of Sbi (S. aureus strain Mu50) (UniProt Q99RL2); remark: listed apart in the source
[3] = molecular target: Sbi-IV (amino acids 197-266), domain IV of Sbi (S. aureus strain Mu50) (UniProt Q99RL2)

With “C3dg, recombinant (from UniProt P01024 955-1303) (domain or fragment)” the Kd [1] was 700 nM, the Kd [2] was 1400 nM and the Kd [3] was 800 nM.
